Series [1] concerns the target YhaM ortholog of Staphylococcus aureus (SaYhaM) (Staphylococcus aureus). Briefly: SEC.
For another series, the target named is T1, YhaM H193A/D194A (Bacillus subtilis, UniProt O07521 1-314, H193A;D194A).
T1 sequence: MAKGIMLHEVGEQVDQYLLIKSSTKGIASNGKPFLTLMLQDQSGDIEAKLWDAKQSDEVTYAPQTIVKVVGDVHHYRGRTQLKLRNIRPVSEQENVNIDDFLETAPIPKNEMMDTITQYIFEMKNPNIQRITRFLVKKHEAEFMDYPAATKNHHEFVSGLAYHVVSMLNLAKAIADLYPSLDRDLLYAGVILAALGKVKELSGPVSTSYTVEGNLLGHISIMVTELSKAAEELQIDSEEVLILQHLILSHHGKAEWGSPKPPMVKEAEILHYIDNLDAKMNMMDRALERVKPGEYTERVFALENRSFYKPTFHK
As to the kind of experiment: BLI.

Another series has as its target T2, YhaM (BsYhaM) (Bacillus subtilis (strain DK1042 / NCIB …, UniProt O07521 1-314)).
T2 sequence: T1 sequence with A193H, A194D
As to the kind of experiment: BLI.

Series [2] concerns the molecule itself. Briefly: mass photometry.
Series [3] deals with the molecule itself. Briefly: mass photometry. This is another data set of the same source.
Series [4] deals with the molecule itself. Briefly: mass photometry. The source holds these as a separate data set.
A further series addresses T3, YhaM dimers (Bacillus subtilis, UniProt O07521 1-314).
T3 sequence: T1 sequence with A193H, A194D
Briefly: BLI.

Numbering of substitutions follows the chain as printed. Names and notes keep the numbering of the source. Values joined by “and” are separate entries in the source; they are usually repeats but may differ in a detail not shown here. Equal entries are not always repeated. Where two headings read alike, the source gives them in different places.

These results are taken from paper PMC12107432 (Nucleic Acids Research, 2025).

Consider “YhaM ortholog of Staphylococcus aureus (SaYhaM) (enzyme)”, for which the stoichiometry N in series [1] stood at 6.

B1: Bli DNA 40-nt (ssDNA)
DNA: GTTAATTAAGTTTTAACCTTTAAGCTGTAATAGGGAGTTT
Turning to B1, the binding result in the series with YhaM H193A/D194A and in the series with YhaM (BsYhaM) was “binds” each time.

B2: YhaM W51A (Bacillus subtilis), OB domain variant (enzyme, UniProt O07521 1-314, looked up)
chain: T1 sequence with W51A, A193H, A194D
Regarding B2, the “stoichiometry N” value in “mass photometry [2]” was 2; in the series “mass photometry [3]” it was 6.

B3: YhaM Y76A (Bacillus subtilis), OB domain variant (enzyme, UniProt O07521 1-314, looked up)
chain: T1 sequence with Y76A, A193H, A194D
Turning to B3, the “stoichiometry N” value in the series “mass photometry [3]” is 6.

B4: YhaM H193A/D194A (Bacillus subtilis), HD motif variant (enzyme, UniProt O07521 1-314, looked up)
chain: T1 sequence
For B4, the “stoichiometry N” value in “mass photometry [4]” was 2; in “mass photometry [3]”, 4 and 6.

B5: ssDNA loop (ssDNA)
DNA: TTTTTTTTTTTTTTTTTTTTTTCCCACAACAAGTCCAACGCAAACGGCCACCCCCCCAACAACAATTTTT
As to B5, in the series with YhaM dimers, the binding result is “binds”.
